± gives the uncertainty stated by the source.
Assay: self-splicing fitness, log relative to wild type (ln ratio); higher = more splicing; Tetrahymena group I intron in knt gene, E. coli kanamycin selection, DiMSum; sequences stand for … in CUCUCU…GGAGGGAAAAGUUAUCAGGCAUGCACCUGGUAGCUAGUCUUUAAACCAAUAGAUUGCAUCGGUUUAAAAGGCAAGACCGUCAAAUUGCGGGAAAGGGGUCAACAGCCGUUCAGUACCAAGUCUCAGGGGAAACUUUGAGAUGGCCUUGCAAAGGGUAUGGUAAUAAGCUGACGGACAUGGUCCUAACCACGCAGCCAAGUCCUAAGUCAACAGAUCUUCUGUUGAUAUGGAUGCAGUUCACAGACUAAAUGUCGGUCGGGGAAGAUGUAUUCUUCUCAUAAGAUAUAGUCGGACCUCUCCUUAAUGGGAGCUAGCGGAUGAAGUGAUGCAACACUGGAGCCGCUGGGAACUAAUUUGUAUGCGAAAGUAUAUUGAUUAGUUUUGGAGUACUCGUGGUCG
Summary of the method: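 Library with all eight P1ex-region intron nucleotides randomised, intron inside the knt kanamycin-resistance gene on pET-22b(+), in E. coli BL21(DE3). Cells grew overnight at 37°C or 30°C on LB agar with or without 25 μg/mL kanamycin (plus 100 μg/mL carbenicillin, 50 μM IPTG, 0.2% rhamnose), in six replicate transformations. Pooled colonies were amplicon-sequenced on Illumina HiSeq 2500. DiMSum fitness is the error-weighted combination of wild-type-normalised replicate fold changes, kanamycin versus none.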

| Sequence | self-splicing fitness (ln) (30 °C) | self-splicing fitness (ln) (37 °C) |
| --- | --- | --- |
| UCAGAGCAAUAUUACGAGAU | -3.74 ± 0.33 | -2.09 ± 0.37 |
| CAUUAGCAAUAUUACGUUUC | -2.39 ± 0.33 | -2.2 ± 0.32 |
| AUCUAGCAAUAUUACGGGUG | -1.93 ± 0.067 | -0.57 ± 0.067 |
| UGUUAGCAAUAUUACGAACC | -0.427 ± 0.21 | 0.133 ± 0.25 |
| GAUCAGCAAUAUUACGAUGC | -0.684 ± 0.12 | 0.0112 ± 0.12 |
| AGGGAGCAAUAUUACGUACA | -2.14 ± 0.18 | -2.46 ± 0.28 |
| CCCCAGCAAUAUUACGCAAG | -3.05 ± 0.14 | -2.28 ± 0.19 |
| UCCAAGCAAUAUUACGAUGA | -0.0226 ± 0.05 | 0.466 ± 0.071 |
| CUAUAGCAAUAUUACGUGCG | -1.19 ± 0.1 | -0.322 ± 0.13 |
| GAGGAGCAAUAUUACGUCUC |  | -0.811 ± 0.49 |
| GAAAAGCAAUAUUACGAACG | -0.893 ± 0.083 | -0.364 ± 0.11 |
| UGCCAGCAAUAUUACGAGCC | -0.839 ± 0.087 | 0.369 ± 0.15 |
| GACGAGCAAUAUUACGUCAA | -3.11 ± 0.27 |  |
| CUGGAGCAAUAUUACGGAAG | -3.48 ± 0.41 | -1.45 ± 0.28 |
| UCGCAGCAAUAUUACGUUAG | -2.74 ± 0.15 | -1.63 ± 0.17 |
| GAACAGCAAUAUUACGCGAU | -2.87 ± 0.13 | -2.27 ± 0.14 |
| GUGCAGCAAUAUUACGCACA | -3.26 ± 0.18 | -1.67 ± 0.12 |
| ACACAGCAAUAUUACGAAGU | -3.43 ± 0.14 | -2.21 ± 0.15 |
| CUUGAGCAAUAUUACGUAUG | -1.21 ± 0.1 | -1.35 ± 0.14 |
| AACCAGCAAUAUUACGGCUA | -0.197 ± 0.048 | 0.0992 ± 0.063 |

| Sequence | self-splicing fitness (ln) (30 °C) | self-splicing fitness (ln) (37 °C) |
| --- | --- | --- |
| GUAAAGCAAUAUUACGUUAU | -2.57 ± 0.14 | -1.23 ± 0.17 |
| GGCAAGCAAUAUUACGACAU | -0.288 ± 0.012 | 0.141 ± 0.032 |
| CGAUAGCAAUAUUACGGAUU | -2.89 ± 0.11 | -2.61 ± 0.2 |
| CUUGAGCAAUAUUACGUCGC | -2.54 ± 0.21 | -1.81 ± 0.19 |
| AUAGAGCAAUAUUACGACUC | -0.707 ± 0.11 | -0.0412 ± 0.15 |
| GAGGAGCAAUAUUACGAUUG |  | -1.93 ± 0.29 |
| CGCCAGCAAUAUUACGAAGU | -3.65 ± 0.16 | -2.13 ± 0.11 |
| UCUAAGCAAUAUUACGAGUG | -0.69 ± 0.092 | -0.683 ± 0.14 |
| UCGGAGCAAUAUUACGGCUA |  | -1.32 ± 0.39 |
| AGAGAGCAAUAUUACGCGUA | -2.46 ± 0.27 | -2.08 ± 0.48 |
| CCACAGCAAUAUUACGGUGC | -4.03 ± 0.19 | -2.97 ± 0.2 |
| GUGAAGCAAUAUUACGAGGA |  | -0.805 ± 0.32 |
| AGAUAGCAAUAUUACGGGGU | -3.5 ± 0.16 | -2.26 ± 0.13 |
| UACCAGCAAUAUUACGCACU | -0.478 ± 0.063 | 0.393 ± 0.081 |
| GUGAAGCAAUAUUACGAAUU | -0.957 ± 0.18 | -0.439 ± 0.21 |
| AGUUAGCAAUAUUACGUUUA | -2.23 ± 0.21 | -1.06 ± 0.21 |
| GCUUAGCAAUAUUACGCACU | -0.857 ± 0.11 | 0.197 ± 0.12 |
| CAGAAGCAAUAUUACGCAGG | -2.75 ± 0.15 | -1.73 ± 0.13 |
| ACGAAGCAAUAUUACGGCUG | -0.78 ± 0.052 | -0.0127 ± 0.084 |
| UCAAAGCAAUAUUACGGGUA | -0.981 ± 0.096 | 0.505 ± 0.093 |

Reference: the supplement of paper PMC7877785
